These results are taken from PMC5128726, “Mechanism and Regulation of DNA-Protein Crosslink Repair by the DNA-Dependent Metalloprotease SPRTN”.

Positions count from the first letter of the chain named.

One data set addresses T1, SPRTN 247-489 (Homo sapiens, UniProt Q9H040 247-489).
T1 sequence: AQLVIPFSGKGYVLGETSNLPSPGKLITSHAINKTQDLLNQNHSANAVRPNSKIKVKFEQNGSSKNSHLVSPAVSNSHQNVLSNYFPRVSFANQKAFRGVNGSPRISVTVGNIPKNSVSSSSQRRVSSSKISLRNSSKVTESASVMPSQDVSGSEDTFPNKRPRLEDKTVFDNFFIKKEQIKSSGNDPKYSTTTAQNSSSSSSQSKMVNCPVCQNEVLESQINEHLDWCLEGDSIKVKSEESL
The experiment in a line: EMSA; 250 nM DNA, 0.5-1 uM protein; Oligo EMSA: protein in 250 mM NaCl, 50 mM HEPES pH 7.5, 10% glycerol mixed 1:1 with DNA in 0.2 mg/ml BSA, 15 uM (so in the source) HEPES pH 7.5; 20 min on ice; 6% PAGE. Phage DNA: 0.8% agarose, 4 C. Conditions: protein: recombinant; label: 5' Alexa488. For orientation: A gel shift assay detects complexes by their altered migration in electrophoresis.

In another data set the target is T2, SPRTN WT (Homo sapiens, UniProt Q9H040 1-489).
T2 sequence: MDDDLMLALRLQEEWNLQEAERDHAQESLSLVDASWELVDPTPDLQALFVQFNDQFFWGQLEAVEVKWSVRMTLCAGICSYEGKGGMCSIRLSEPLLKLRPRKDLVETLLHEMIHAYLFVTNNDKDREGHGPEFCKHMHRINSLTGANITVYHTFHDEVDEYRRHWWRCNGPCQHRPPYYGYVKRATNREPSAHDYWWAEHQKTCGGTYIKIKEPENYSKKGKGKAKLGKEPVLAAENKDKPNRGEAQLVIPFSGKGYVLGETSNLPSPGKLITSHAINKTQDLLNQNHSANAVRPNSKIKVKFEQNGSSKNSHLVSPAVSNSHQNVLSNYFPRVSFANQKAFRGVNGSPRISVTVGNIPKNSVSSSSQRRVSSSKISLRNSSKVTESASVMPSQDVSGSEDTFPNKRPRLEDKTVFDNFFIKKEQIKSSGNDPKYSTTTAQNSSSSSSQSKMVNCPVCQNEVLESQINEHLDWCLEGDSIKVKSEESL
Described as above. Conditions: protein: recombinant; tags: N-terminal GST, C-terminal Strep; label: 5' Alexa488.

The target of the next data set is T3, SPRTN 1-199 (Homo sapiens, UniProt Q9H040 1-199).
T3 sequence: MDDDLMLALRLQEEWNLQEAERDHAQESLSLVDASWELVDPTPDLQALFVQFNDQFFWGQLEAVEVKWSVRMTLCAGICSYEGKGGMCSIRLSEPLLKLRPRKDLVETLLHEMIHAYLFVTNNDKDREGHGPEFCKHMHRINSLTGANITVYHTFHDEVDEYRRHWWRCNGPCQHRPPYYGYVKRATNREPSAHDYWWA
As to the kind of experiment: EMSA; 250 nM DNA, 0.25-1 uM protein; Oligo EMSA: protein in 250 mM NaCl, 50 mM HEPES pH 7.5, 10% glycerol mixed 1:1 with DNA in 0.2 mg/ml BSA, 15 uM (so in the source) HEPES pH 7.5; 20 min on ice; 6% PAGE. Phage DNA: 0.8% agarose, 4 C. As to conditions: protein: recombinant; tags: N-terminal GST, C-terminal Strep; label: 5' Alexa488.

The target in another data set is T4, SPRTN 200-250 (Homo sapiens, UniProt Q9H040 200-250).
T4 sequence: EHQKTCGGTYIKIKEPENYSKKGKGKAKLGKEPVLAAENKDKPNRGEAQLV
Described as above. Conditions: protein: recombinant; tags: GST; label: 5' Alexa488.

The next data set deals with T5, SPRTN-EQ (Homo sapiens, UniProt Q9H040 1-489, E112Q).
T5 sequence: T2 sequence with E112Q
The experiment in a line: SAXS; 1:1.2 protein:DNA; Rg +8-10 A, Dmax +30 A; 50 mM HEPES pH 7.5, 75 mM KCl, 1% glycerol; Oligo EMSA: protein in 250 mM NaCl, 50 mM HEPES pH 7.5, 10% glycerol mixed 1:1 with DNA in 0.2 mg/ml BSA, 15 uM (so in the source) HEPES pH 7.5; 20 min on ice; 6% PAGE. Phage DNA: 0.8% agarose, 4 C. As to conditions: protein: recombinant; tags: N-terminal GST, C-terminal Strep.

Turning to ACGCTGCCGAATTCTACCAGTGCCTTGCTA (ssDNA) [Alexa488 30-mer ss oligonucleotide], the binding result is “no binding” with SPRTN 247-489, “binds” with SPRTN WT, “no binding” in the data set with SPRTN 1-199 and “binds” with SPRTN 200-250.
On to ACGCTGCCGAATTCT (ssDNA) [15-mer ssDNA], for which the binding result with SPRTN-EQ was “binds”.
